In patent US20160215040A1 (Regeneron, published 2016):

T1: Ebola virus GP, Sudan strain, on VLPs (Ebola virus, Sudan strain, UniProt Q7T9D9 33-676)
T1 construct: also called Sudan NC_006432
T1 sequence: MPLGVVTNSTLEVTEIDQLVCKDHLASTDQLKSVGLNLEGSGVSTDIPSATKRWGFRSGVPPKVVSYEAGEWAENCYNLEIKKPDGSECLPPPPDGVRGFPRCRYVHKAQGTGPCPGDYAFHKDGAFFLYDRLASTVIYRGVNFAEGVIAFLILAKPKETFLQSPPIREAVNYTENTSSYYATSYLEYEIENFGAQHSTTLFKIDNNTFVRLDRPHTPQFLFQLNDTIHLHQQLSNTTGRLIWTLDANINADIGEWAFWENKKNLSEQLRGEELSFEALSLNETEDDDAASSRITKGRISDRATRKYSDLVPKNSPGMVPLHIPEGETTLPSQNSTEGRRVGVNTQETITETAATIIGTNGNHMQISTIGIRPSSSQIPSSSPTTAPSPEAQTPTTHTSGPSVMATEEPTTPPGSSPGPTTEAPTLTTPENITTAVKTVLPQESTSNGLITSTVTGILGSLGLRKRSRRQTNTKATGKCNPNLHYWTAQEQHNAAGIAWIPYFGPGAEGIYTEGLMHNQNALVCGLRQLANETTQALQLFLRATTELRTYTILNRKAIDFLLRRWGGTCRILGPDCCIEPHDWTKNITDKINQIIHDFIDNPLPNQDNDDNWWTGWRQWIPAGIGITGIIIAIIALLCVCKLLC

T2: Ebola virus GP, Cote d'Ivoire strain, on VLPs (Ebola virus, Cote d'Ivoire strain, UniProt Q66810 33-676)
T2 construct: also called Cote d'Ivoire FJ217162; Ivory Coast
T2 sequence: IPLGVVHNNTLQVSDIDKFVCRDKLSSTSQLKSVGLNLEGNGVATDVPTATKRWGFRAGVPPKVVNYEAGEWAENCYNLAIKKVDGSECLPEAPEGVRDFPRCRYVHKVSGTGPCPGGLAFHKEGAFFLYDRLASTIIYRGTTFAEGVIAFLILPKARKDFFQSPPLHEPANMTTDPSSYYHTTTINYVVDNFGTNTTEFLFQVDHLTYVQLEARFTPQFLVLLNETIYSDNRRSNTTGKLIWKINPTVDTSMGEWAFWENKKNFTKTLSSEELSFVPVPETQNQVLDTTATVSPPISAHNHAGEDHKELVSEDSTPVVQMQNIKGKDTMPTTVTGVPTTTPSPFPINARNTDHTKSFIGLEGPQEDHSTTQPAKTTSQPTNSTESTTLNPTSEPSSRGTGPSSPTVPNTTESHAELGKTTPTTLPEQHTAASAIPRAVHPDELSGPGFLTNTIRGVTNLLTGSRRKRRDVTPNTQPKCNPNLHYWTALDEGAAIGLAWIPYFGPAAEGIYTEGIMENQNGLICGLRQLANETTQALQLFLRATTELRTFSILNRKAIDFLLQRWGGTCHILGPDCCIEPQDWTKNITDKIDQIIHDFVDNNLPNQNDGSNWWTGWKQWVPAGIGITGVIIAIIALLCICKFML

T3: hCNTFR.mmh (ciliary neurotrophic factor receptor.mmh) (human (printed as hCNTFR), UniProt P26992 23-342)
T3 construct: also called negative control protein; not shown: mmh (myc-myc-hexahistidine) tag
T3 sequence: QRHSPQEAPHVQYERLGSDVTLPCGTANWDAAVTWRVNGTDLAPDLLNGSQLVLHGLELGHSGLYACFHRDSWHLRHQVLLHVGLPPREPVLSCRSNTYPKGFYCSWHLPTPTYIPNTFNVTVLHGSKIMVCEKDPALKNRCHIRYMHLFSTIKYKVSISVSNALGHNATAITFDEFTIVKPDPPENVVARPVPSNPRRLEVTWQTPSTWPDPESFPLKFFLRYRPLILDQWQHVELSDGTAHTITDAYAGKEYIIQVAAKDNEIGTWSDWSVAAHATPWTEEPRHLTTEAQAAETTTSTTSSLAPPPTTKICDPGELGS

B1: H1H17199P (antibody, V domains shown)
VH: EVQLVESGGGLVQPGGSLRLSCAASGFTFSDHYMVWVRQAPGKGLEWVGRTRNKANSYSTEYAASVKGRFTISRDDSKKSLYLQMNSLKTEDTAVYYCARGGETLWFGESNYGMDVWGQGTTVTVSS
VL: EIVLTQSPDTLSLSPGERATLSCRASQSVSSTYLAWYQQKPGQAPSLLIYGASSRATGIPDRFSGSGSGTDFTLTISRLEPEDFAVYYCQQYGRSPLTFGGGTKVEIK
B2: H1H17214P (antibody, V domains shown)
VH: EVQLVESGGGLVQPGGSLRLSCAASKFTFDTFAMSWVRQAPGKGLEWVSFISSSGGRTDYVDSVKGRFTISRDNSKNTLYLQMNSLRAEDTAVYYCAKERTIFGVLILGPDNYGMDVWGQGTTVTVSS
VL: DIQMTQSPSSLSAFVGDRVTITCRASQSISTYLNWYQQKPGKAPKLLIYAASSLQSGVSSRFSGSGSGTDFTLTISSLQPEDFATYYCQQSYSAPPITFGQGTRLEIK
B3: H1M17354N (antibody, V domains shown)
VH: QVQLVQSGAEVKKPGASVKVSCKASGYTFTSYYMHWVRQAPGQGLEWLGIINPSGGSTSYAQKFQGRVTMTRDTSTSTVYMELSSLRSEDTAVYYCARETGEAGEVFNYWGQGTQVTVSS
VL: DIQMTQSPSSLSASVGDRVTITCRASQIISRYLNWYQHKPGKAPKVLIYAASTLQSGVPSRFSGSGSGTDFTLTISSLQPEDFATYYCQQSYSTPPITFGQGTRLEIK
notes: also called HCAF05C08-22
B4: H1H17203P (antibody, V domains shown)
VH: QVQLVESGGGVVQPGRSLRLSCAASGFTFNNYGMHWVRQAPGMGLEWVAVIWHDGSDKYYADSVKGRFTISRDNSKNTLYLQMNSLRAEDTAVYYCARNWNLFDYWGQGTLVTVSS
VL: DIQMTQSPSSLSASVGDRITITCRASQSISTYLHWYQQKPGKAPKLLIYAASTLQSGVPSRFSGSGSGTDFTLTISSLQPEDFATYYCQQSFSTPPINFGQGTKLEIK
B5: H1H17223P (antibody, V domains shown)
VH: EVQLVESGGGLVQPGGSLRLSCAASGFTFRTYDMHWVRQATGKGLEWVSAIGTAGDTYYPGSVKGRFTISRENAKNSLYLQMNSLRAGDTAVYYCARTIFGVVLTFDYWGQGTLVTVSS
VL: DIQMTQSPSSLSASVGDRVTITCRASQSISSSLNWYQQKPGKAPKLLIYAASSLHSGVPSRFSGSGSGTDFTLTISSLQPEDFATYYCQQTYSIPPTTFGQGTKVEIK
B6: H1H17219P (antibody, V domains shown)
VH: QVQLQQSGPGLVKPSQTLSLTCAISGDSVSSNIPAWNWIRQSPSRGLEWLGRTYYRSKWYNDYAVSVKSRITINPDTSKNHFSLQLNSVTPEDTAVYYCARGRVYDRSSRYFYAMDVWGQGTTVTVSS
VL: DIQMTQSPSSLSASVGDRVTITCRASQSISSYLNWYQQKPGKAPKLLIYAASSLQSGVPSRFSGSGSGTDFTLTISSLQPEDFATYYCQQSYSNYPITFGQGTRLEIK
B7: H1H17228P (antibody, V domains shown)
VH: EVQLVESGGGLVQPGGSLRLSCAASGFTFSNYAMIWVRQAPGKGLEWVSGISGSGGSIYYADSVKGRFTISRDNSKNTLYLQMNSLRAEDTAVYYCAKEGIISMVRGLINYYHGMDVWGQGTTVTVSS
VL: not shown
B8: H1H17139P (antibody, V domains shown)
VH: EVQLVESGGGLVQPGGSLRLSCAASGFTFSSYDMHWVRQATGKGLEWVSAIGTAGDTYYPGSVKGRFTISRENAKNSLYLQMNSLRAGDTAVYYCARTWFGELYFDYWGQGTLVTVSS
VL: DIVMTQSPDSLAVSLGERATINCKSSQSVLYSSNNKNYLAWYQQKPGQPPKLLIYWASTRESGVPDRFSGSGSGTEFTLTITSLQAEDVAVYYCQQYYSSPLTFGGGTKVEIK

What was measured:
[1] = biological target: T1, Ebola virus GP, Sudan strain, on VLPs; test: MSD, VLPs coated
[2] = biological target: T2, Ebola virus GP, Cote d'Ivoire strain, …; test: MSD, VLPs coated
[3] = biological target: T4, Ebola virus GP with a C-terminal polyhistidine tag (Sino Biologicals, Catalog #40442-V08B1) (Ebola virus, UniProt P87666 33-650); test: SPR 25C, mAb captured
T4 construct: also called EbolaGP.his; Ebola virus GP.his

[4] = biological target: T4, Ebola virus GP with a C-terminal …; test: SPR 37C, mAb captured
[5] = biological target: T3, hCNTFR.mmh (ciliary neurotrophic factor …); test: BLI, mAb captured, 25C
[6] = biological target: T4, Ebola virus GP with a C-terminal …; test: SPR 37C, mAb captured, pH chase

| Binder | binding result [1] | binding result [2] | Kd [3] [nM] | koff [3] [s⁻¹] | kon [3] [M⁻¹ s⁻¹] | t½ [3] [min] | Kd [4] [nM] | koff [4] [s⁻¹] | kon [4] [M⁻¹ s⁻¹] | t½ [4] [min] | binding result [5] | t½ ratio pH 7.4/pH 5.0 [6] | t½ ratio pH 7.4/pH 6.0 [6] |
| --- | --- | --- | --- | --- | --- | --- | --- | --- | --- | --- | --- | --- | --- |
| B1 | no binding | no binding | 18.9 | 0.000236 | 12500 | 49 | 42.2 | 0.00128 | 30400 | 9 | no binding (tested: below 0.10 nm at 300 nM) | 0.1 | 0.4 |
| B2 | no binding | no binding | ≤ 0.266 | ≤ 1e-05 | 37600 | ≥ 1160 | 4.2 | 0.000154 | 36700 | 74.9 | no binding (tested: below 0.10 nm at 300 nM) | 1 | 1 |
| B3 | no binding | no binding | 63.9 | 0.00316 | 49400 | 3.7 | 113 | 0.00573 | 50800 | 2 | no binding (tested: below 0.10 nm at 300 nM) | 1.3 | 1.3 |
| B4 | no binding | no binding | 6.04 | 0.000168 | 27800 | 68.7 | 30.9 | 0.00119 | 38500 | 9.7 | no binding (tested: below 0.10 nm at 300 nM) | 0.1 | 0.2 |
| B5 | no binding | no binding | 2.03 | 6.08e-05 | 30000 | 190 | 6.89 | 0.000242 | 35100 | 47.7 | no binding (tested: below 0.10 nm at 300 nM) | 0.4 | 0.4 |
| B6 | no binding | no binding | 0.934 | 2.9e-05 | 31100 | 398 | 0.227 | ≤ 1e-05 | 44100 | ≥ 1160 | no binding (tested: below 0.10 nm at 300 nM) | 1 | 1 |
| B7 | no binding | no binding | 37.6 | 0.00169 | 44900 | 6.9 | 52.3 | 0.00383 | 73200 | 3 | no binding (tested: below 0.10 nm at 300 nM) | 0.5 | 0.6 |
| B8 | no binding | no binding | 7.13 | 0.000163 | 22900 | 70.8 | 20.6 | 0.000512 | 24800 | 22.5 | no binding (tested: below 0.10 nm at 300 nM) | 0.2 | 0.2 |
